What was measured:
recombinant human TL1A [1] = target: T1, recombinant human TL1A (human, UniProt O95150 71-251); assay: SPR, 37 C; biotinylated human TL1A captured on Biotin CAPture chip, antibody injected
T1 construct: TL1A is described as a homotrimer; Biotinylated for SPR capture; also called TNFSF15
T1 chain: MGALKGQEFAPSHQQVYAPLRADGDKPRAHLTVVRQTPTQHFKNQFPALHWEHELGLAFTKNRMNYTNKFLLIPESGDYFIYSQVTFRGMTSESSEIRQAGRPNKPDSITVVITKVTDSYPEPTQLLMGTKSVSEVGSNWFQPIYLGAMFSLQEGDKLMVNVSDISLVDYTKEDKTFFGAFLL
Description: SPR was utilized to determine if the affinity constants of each arm of the bispecific variants binding human IL-23, containing the p40 subunit, and human TL1A were the same for each bispecific approach. For the analysis of the p40 binding arm, kinetic assays were conducted at 37° C. using a collection rate of 10 Hz on a Biacore™ 8 K+ instrument (GE Healthcare). An anti-human IgG antibody (anti-human Fc, GE Healthcare, 22-0648-88) was amine coupled to all four flow cells of a carboxymethylated dextran coated sensor chip (GE Healthcare,) using the manufacturer's recommended protocol. […] For the analysis of the TL1A binding arm, kinetic assays were conducted at 37° C. using a collection rate of 10 Hz on a Biacore™ T200 instrument (GE Healthcare).
As described above in EXAMPLE 12, SPR was utilized to determine if the affinity constants of each arm of the bispecific variants binding human IL-23, containing the p40 subunit, and human TL1A were the same for each bispecific variant.

mouse IL-23 = target: T2, mouse IL-23 (mouse, UniProt P43432 23-335; Q9EQ14 22-196); assay: SPR, Biacore 8K+, 37 C; antibody captured by anti-human Fc, cytokine injected
T2 sequence 1: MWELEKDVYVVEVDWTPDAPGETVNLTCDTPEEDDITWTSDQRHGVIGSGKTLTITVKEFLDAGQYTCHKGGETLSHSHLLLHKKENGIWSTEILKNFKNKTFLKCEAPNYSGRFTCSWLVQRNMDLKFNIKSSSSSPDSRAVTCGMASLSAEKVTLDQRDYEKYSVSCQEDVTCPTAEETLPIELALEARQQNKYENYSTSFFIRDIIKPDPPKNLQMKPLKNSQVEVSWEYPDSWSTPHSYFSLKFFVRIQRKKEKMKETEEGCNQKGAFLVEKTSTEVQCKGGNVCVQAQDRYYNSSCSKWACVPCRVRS
T2 sequence 2: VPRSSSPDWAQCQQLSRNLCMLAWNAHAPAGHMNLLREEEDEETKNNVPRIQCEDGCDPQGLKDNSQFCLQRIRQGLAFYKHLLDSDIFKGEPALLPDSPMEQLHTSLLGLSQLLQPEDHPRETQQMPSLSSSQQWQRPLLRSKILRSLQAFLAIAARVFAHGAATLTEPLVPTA
Description: In order to determine binding to TL1A, kinetic assays were conducted at 37° C. using a collection rate of 10 Hz on a Biacore™ T200 instrument (GE Healthcare). […] For the analysis of the p40 binding arm, kinetic assays were conducted at 37° C. using a collection rate of 10 Hz on a Biacore™ 8 K+ instrument (GE Healthcare).

human IL-23 = target: T3, human IL-23 (human, UniProt P29460 23-328; Q9NPF7 20-189); assay: cell-based or functional assay
T3 sequence 1: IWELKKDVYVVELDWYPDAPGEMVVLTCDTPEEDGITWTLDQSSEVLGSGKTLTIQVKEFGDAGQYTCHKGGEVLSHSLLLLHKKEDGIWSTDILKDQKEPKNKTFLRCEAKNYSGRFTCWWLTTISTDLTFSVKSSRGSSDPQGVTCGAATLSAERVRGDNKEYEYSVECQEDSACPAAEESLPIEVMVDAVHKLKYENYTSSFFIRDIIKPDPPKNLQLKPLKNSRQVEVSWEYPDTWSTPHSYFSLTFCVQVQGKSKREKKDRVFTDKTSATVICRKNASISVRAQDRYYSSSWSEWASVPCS
T3 sequence 2: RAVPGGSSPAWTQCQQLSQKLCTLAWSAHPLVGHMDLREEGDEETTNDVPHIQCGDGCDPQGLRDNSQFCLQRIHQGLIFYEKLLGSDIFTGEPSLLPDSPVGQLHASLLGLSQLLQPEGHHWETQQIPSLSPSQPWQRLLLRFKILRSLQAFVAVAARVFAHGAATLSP

cynomolgus monkey IL-12 = target: T4, cynomolgus monkey IL-12 (cynomolgus monkey); assay: cell-based or functional assay
T4 chain 1: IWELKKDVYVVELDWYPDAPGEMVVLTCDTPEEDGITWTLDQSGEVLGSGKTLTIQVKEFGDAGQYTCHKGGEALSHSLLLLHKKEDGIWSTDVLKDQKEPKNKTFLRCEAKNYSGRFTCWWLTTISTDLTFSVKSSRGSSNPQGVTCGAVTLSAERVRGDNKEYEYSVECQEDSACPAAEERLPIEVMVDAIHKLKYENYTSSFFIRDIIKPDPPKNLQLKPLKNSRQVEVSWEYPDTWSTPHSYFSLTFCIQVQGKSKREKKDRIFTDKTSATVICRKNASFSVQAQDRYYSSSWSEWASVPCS
T4 chain 2: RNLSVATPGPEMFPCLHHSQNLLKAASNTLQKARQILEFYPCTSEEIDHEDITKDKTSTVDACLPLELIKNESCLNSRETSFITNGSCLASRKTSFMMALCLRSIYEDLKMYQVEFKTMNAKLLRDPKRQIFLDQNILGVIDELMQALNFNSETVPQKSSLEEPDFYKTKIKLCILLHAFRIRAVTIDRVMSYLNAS

human IL-12 = target: T5, human IL-12 (human, UniProt P29460 23-328; P29459 23-219); assay: cell-based or functional assay
T5 sequence 1: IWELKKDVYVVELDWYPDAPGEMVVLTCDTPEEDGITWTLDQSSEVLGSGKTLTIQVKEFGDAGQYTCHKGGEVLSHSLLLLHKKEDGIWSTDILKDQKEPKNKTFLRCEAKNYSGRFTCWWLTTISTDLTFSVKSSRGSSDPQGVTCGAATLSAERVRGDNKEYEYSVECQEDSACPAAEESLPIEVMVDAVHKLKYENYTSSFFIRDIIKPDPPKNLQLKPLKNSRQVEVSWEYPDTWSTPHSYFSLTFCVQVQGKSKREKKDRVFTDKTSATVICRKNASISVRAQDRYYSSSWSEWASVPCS
T5 sequence 2: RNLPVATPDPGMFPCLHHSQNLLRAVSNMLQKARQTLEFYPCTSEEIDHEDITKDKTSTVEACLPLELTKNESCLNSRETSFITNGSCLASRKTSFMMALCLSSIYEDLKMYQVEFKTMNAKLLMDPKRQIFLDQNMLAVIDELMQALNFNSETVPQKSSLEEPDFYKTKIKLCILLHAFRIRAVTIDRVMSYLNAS

recombinant human TL1A [2] = target: T1, recombinant human TL1A; assay: cell-based or functional assay

- Kd (recombinant human TL1A [1]): 0.622 nM
- koff (recombinant human TL1A [1]): 8.21e-05 s⁻¹
- kon (recombinant human TL1A [1]): 132000 M⁻¹ s⁻¹
- binding result (mouse IL-23): no binding (tested: 200 nM)
- KIT-225 STAT3 phosphorylation, Human IL-23 IC50 (human IL-23): 3.73 nM
- KIT-225 STAT4 phosphorylation, Cynomolgus Monkey IL-12 IC50 (cynomolgus monkey IL-12): 0.95 nM
- KIT-225 STAT4 phosphorylation, Human IL-12 IC50 (human IL-12): 1.11 nM
- NF-κB assay IC50 (TF-1 reporter cells, 384-well) (recombinant human TL1A [2]): 0.31 nM
B1: p40TL1A-0033 bispecific antibody (bispecific antibody, human IgG1, kappa)
heavy: EVQLVQSGAEVKKPGESLKISCKGSGYSFTTYWLGWVRQMPGKGLDWIGIMSPVDSDIRYSPSFQGQVTMSVDKSITTAYLQWNSLKASDTAMYYCARRRPGQGYFDFWGQGTLVTVSSASTKGPSVFPLAPSSKSTSGGTAALGCLVKDYFPEPVTVSWNSGALTSGVHTFPAVLQSSGLYSLSSVVTVPSSSLGTQTYICNVNHKPSNTKVDKKVEPKSCDKTHTCPPCPAPEAAGAPSVFLFPPKPKDTLMISRTPEVTCVVVDVSHEDPEVKFNWYVDGVEVHNAKTKPREEQYNSTYRVVSVLTVLHQDWLNGKEYKCKVSNKALPAPIEKTISKAKGQPREPQVCTLPPSREEMTKNQVSLWCLVKGFYPSDIAVEWESNGQPENNYKTTPPVLDSDGSFFLYSKLTVDKSRWQQGNVFSCSVLHEALHSHYTQKSLSLSPGK
light: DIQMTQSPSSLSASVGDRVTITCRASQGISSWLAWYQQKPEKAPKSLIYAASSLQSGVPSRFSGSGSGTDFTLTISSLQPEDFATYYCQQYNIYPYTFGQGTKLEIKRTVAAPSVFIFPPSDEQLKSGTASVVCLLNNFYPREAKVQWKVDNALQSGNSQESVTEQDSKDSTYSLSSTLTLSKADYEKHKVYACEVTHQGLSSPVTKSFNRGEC
chain 1: not shown
chain 2: QVQLVQSGAEVKKPGASVKVSCKASGYDYTYYGISWVRQAPGQGLEWMGWISTYNTGTHYAPSLQGRVTMTTDTSTSTAYMELRSLRSDDTAVYYCARESYYGSGAFRGGMDVWGQGTTVTVSSASTKGPSVFPLAPSSKSTSGGTAALGCLVKDYFPEPVTVSWNSGALTSGVHTFPAVLQSSGLYSLSSVVTVPSSSLGTQTYICNVNHKPSNTKVDKKVEPKSC
notes: Single cell KiH, modified Fd format; IgG1 effector-function-minimized Fc with LS mutations

From patent US20240059799A1 (Pfizer, published 2024)
